Test results as given in patent US20230099149A1 (INNATE PHARMA, published 2023).

Assays:
[1] = target: T1, human Nectin-4 at the surface of SUM185 and SUM190 human breast cancer tumor cells (human, UniProt Q96NY8 32-510); experiment: cell-based or functional assay
T1 sequence: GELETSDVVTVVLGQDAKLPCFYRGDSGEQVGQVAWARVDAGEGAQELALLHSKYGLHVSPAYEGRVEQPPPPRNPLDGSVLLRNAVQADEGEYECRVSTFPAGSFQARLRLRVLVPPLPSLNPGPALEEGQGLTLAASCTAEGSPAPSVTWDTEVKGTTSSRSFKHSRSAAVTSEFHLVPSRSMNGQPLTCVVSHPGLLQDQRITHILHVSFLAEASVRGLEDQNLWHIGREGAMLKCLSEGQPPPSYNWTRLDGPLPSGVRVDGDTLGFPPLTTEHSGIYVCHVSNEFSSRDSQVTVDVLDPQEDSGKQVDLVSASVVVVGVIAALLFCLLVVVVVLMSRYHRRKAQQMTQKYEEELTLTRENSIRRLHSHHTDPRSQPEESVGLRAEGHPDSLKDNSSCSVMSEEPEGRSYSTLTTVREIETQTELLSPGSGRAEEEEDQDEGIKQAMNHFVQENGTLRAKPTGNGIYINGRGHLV

[2] = target: T2, modified Nectin-4 having the Ig-like C2 type 1 and the Ig-like C2 type 2 domains and lacking the Ig-like V … (human, UniProt Q96NY8 148-510); experiment: flow cytometry on CHO cells expressing Nectin4-C1C2-V5
T2 construct: also called C1C2 construct
T2 sequence: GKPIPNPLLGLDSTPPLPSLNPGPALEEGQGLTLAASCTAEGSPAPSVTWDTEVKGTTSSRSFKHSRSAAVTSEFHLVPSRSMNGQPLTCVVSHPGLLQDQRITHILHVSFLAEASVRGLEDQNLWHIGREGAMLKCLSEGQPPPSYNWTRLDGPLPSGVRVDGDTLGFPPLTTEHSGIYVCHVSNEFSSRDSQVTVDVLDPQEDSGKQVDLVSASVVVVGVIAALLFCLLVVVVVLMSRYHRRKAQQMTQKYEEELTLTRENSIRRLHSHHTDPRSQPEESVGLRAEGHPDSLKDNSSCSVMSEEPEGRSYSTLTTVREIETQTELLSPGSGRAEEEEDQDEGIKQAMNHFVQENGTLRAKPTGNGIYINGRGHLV

[3] = target: T3, wild-type human Nectin-4 protein expressed on CHO cells (huNectin4 CI.3C8 cell line) (human, UniProt Q96NY8 32-510); experiment: flow cytometry on CHO cells expressing wild-type human Nectin-4
T3 construct: also called whole Nectin-4 protein; wild type Nectin-4
T3 sequence: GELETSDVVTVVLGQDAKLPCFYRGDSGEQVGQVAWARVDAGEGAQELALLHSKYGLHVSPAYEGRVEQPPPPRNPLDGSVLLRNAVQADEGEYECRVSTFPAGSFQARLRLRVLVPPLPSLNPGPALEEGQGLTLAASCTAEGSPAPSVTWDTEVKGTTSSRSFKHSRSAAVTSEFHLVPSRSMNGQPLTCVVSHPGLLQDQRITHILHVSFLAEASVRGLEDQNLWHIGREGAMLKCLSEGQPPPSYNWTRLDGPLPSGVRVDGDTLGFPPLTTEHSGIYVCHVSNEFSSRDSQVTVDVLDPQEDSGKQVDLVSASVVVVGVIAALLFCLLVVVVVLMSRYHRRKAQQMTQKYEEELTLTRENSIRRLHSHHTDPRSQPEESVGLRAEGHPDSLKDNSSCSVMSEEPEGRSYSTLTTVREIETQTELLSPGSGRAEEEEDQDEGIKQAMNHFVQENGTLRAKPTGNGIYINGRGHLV

Binder | IC50 of cell death, SUM185 cells, Cell Titer Glo viability at day 6 [1] [nM] | IC50 of cell death, SUM190 cells, Cell Titer Glo viability at day 6 [1] [nM] | binding result [2] | binding result [3]
N4 ADC1: anti-Nectin-4 antibody (VH and VL of SEQ ID NOS: 9 and 10, human IgG1) conjugated to a linker-camptothecin analogue (antibody, V domains shown, linker-camptothecin analogue conjugated stochastically via cysteine residues after partial reduction of interchain disulfide; average drug:antibody ratio of about 8) VH: QVQLKQSGPGLVQPSQSLSITCTVSGFSLTNYGVHWVRQSPGKGLEWLGVIWSGGSTDYNAAFISRLSISKDTSKSQVFFKMNSLQADDTAIYYCARELIHAMDNWGQGTSVTVSS VL: DIQMTQSPASLSVSVGETVTITCRASENIYSNLAWYQQKQGNSPQLLVFAATNLADGVPSRFSGSGSGTQYSLKINSLQSEDFGTYYCQHFWGTPTFGGGTKLEIK | 0.05 | 0.1 | – | –
N4 ADC2: anti-Nectin-4 antibody (VH and VL of SEQ ID NOS: 9 and 10, human IgG1) conjugated to a SN-38 containing linker (antibody, V domains shown, SN-38 containing linker conjugated via cysteine residues after partial reduction of interchain disulfide) VH: QVQLKQSGPGLVQPSQSLSITCTVSGFSLTNYGVHWVRQSPGKGLEWLGVIWSGGSTDYNAAFISRLSISKDTSKSQVFFKMNSLQADDTAIYYCARELIHAMDNWGQGTSVTVSS VL: DIQMTQSPASLSVSVGETVTITCRASENIYSNLAWYQQKQGNSPQLLVFAATNLADGVPSRFSGSGSGTQYSLKINSLQSEDFGTYYCQHFWGTPTFGGGTKLEIK | – | 0.4 | – | –
N41 (VH and VL of SEQ ID NOS: 9 and 10 as human IgG1 isotype) (antibody, V domains shown, also called mAbC) VH: QVQLKQSGPGLVQPSQSLSITCTVSGFSLTNYGVHWVRQSPGKGLEWLGVIWSGGSTDYNAAFISRLSISKDTSKSQVFFKMNSLQADDTAIYYCARELIHAMDNWGQGTSVTVSS VL: DIQMTQSPASLSVSVGETVTITCRASENIYSNLAWYQQKQGNSPQLLVFAATNLADGVPSRFSGSGSGTQYSLKINSLQSEDFGTYYCQHFWGTPTFGGGTKLEIK | – | – | no binding | binds
enfortumab (VH and VL of SEQ ID NOS: 3 and 4 as human IgG1 isotype) (antibody, V domains shown, also called mAbA; ASG-22ME) VH: EVQLVESGGGLVQPGGSLRLSCAASGFTFSSYNMNWVRQAPGKGLEWVSYISSSSSTIYYADSVKGRFTISRDNAKNSLSLQMNSLRDEDTAVYYCARAYYYGMDVWGQGTTVTVSS VL: DIQMTQSPSSVSASVGDRVTITCRASQGISGWLAWYQQKPGKAPKFLIYAASTLQSGVPSRFSGSGSGTDFTLTISSLQPEDFATYYCQQANSFPPTFGGGTKVEIKR | – | – | no binding | –
